T1: Recombinant marmoset IL-18 (marmoset, UniProt U3CWC9 37-190)
T1 sequence: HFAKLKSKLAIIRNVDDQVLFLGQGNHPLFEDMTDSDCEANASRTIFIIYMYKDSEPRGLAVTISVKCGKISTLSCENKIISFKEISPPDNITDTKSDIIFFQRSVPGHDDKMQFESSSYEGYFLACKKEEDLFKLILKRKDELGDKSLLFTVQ


Assays:
[1] = target: T2, Recombinant marmoset IL-1β (marmoset, UniProt U3E018 117-268); experiment: cell-based or functional assay
Recombinant human IL-18 [2] = target: T3, Recombinant human IL-18 (human, UniProt Q14116 37-193); experiment: SET, simultaneous target binding Assay B (both targets in serial dilutions in one mix)
T3 construct: also called huIL-18; hulL-18
Description: (§1) Assay B: The equilibration process (antibody/antigen mix) was performed with both targets in serial dilutions in one mix simultaneously (constant concentration of antibody 10 pM, highest antigen conc. see above). The same mix was then analyzed for its free antibody concentration on IL18 and IL-1β coated plates as described above.

Recombinant human IL-1β [3] = target: T4, Recombinant human IL-1β (human, UniProt P01584 117-269); experiment: cell-based or functional assay
Recombinant human IL-18 [4] = target: T3, Recombinant human IL-18; experiment: cell-based or functional assay
Recombinant human IL-1β [5] = target: T4, Recombinant human IL-1β; experiment: SET, simultaneous target binding Assay B (both targets in serial dilutions in one mix)
Description: as §1

[6] = target: T2, Recombinant marmoset IL-1β; experiment: as above
Description: as §1

[7] = target: T1, Recombinant marmoset IL-18; experiment: cell-based or functional assay

Binder | IC50, inhibition of IL-6 production in human dermal fibroblasts stimulated with recombinant marmoset IL-1β (18 pM), Exp. C [1] [nM] | IC50, inhibition of IL-6 production in marmoset dermal fibroblasts stimulated with recombinant marmoset IL-1β (18 pM), Exp. A [1] [nM] | IC50, inhibition of IL-6 production in marmoset dermal fibroblasts stimulated with recombinant marmoset IL-1β (18 pM), Exp. B [1] [nM] | binding result (Recombinant human IL-18 [2]) | IC50, inhibition of IL-6 production in human PBMC stimulated with recombinant human IL-1β (60 pM) (Recombinant human IL-1β [3]) [nM] | IC50, inhibition of IL-6 production in human dermal fibroblasts stimulated with recombinant human IL-1β (6 pM) (Recombinant human IL-1β [3]) [nM] | IC50, inhibition of IFNγ production in KG-1 cells stimulated with recombinant human IL-18 (3 nM) and human IL-12 (1 ng/ml) (Recombinant human IL-18 [4]) [nM] | IC50, inhibition of IFNγ production in human PBMC stimulated with recombinant human IL-18 (3 nM) and human IL-12 (1 ng/ml) (Recombinant human IL-18 [4]) [nM] | binding result (Recombinant human IL-1β [5]) | binding result [6] | IC50, inhibition of IFNγ production in human PBMC stimulated with recombinant marmoset IL-18 (1 nM) and human IL-12 (10 ng/ml) [7] [nM] | IC50, inhibition of IFNγ production in marmoset whole blood stimulated with recombinant marmoset IL-18 (0.3 nM) and human IL-12 (10 ng/ml) [7] [nM] | IC50, inhibition of IFNγ production in marmoset whole blood stimulated with recombinant marmoset IL-18 (3 nM) and human IL-12 (10 ng/ml) [7] [nM]
mAb2 (antibody, human IgG1, kappa, V domains shown, Human anti-IL-1β monoclonal antibody, kappa light chain; also called IL-1β antibody) VH: QVQLVESGGGVVQPGRSLRLSCAASGFTFSVYGMNWVRQAPGKGLEWVAIIWYDGDNQYYADSVKGRFTISRDNSKNTLYLQMNGLRAEDTAVYYCARDLRTGPFDYWGQGTLVTVSS VL: EIVLTQSPDFQSVTPKEKVTITCRASQSIGSSLHWYQQKPDQSPKLLIKYASQSFSGVPSRFSGSGSGTDFTLTINSLEAEDAAAYYCHQSSSLPFTFGPGTKVDIKR | 0.114 | 0.095 | 0.138 | no binding (tested: highest antigen conc. 5 nM) | 0.29 | 0.031 |  |  |  |  |  |  | 
mAb1 (antibody, human IgG1, lambda, L234A L235A, V domains shown, Human anti-IL-18 monoclonal antibody, lambda light chain; also called IL-18 antibody) VH: EVQLVQSGAEVKKPGSSVKVSCKASGGTFKSYAISWVRQAPGQGLEWMGNIIPMTGQTYYAQKFQGRVTITADESTSTAYMELSSLRSEDTAVYYCARAAYHPLVFDNWGQGTLVTVSS VL: DIVLTQPPSVSGAPGQRVTISCSGSSSNIGNHYVNWYQQLPGTAPKLLIYRNNHRPSGVPDRFSGSKSGTSASLAITGLQSEDEADYYCQSWDYSGFSTVFGGGTKLTVLG |  |  |  |  |  |  | 0.035 | 0.78 | no binding (tested: highest antigen conc. 0.5 nM) | no binding (tested: highest antigen conc. 0.5 nM) | 6.6 | 4.7 | 181

Source: patent US20240294626A1 (Novartis, published 2024)
